Reference: article PMC10526462

Assays:
alpha-thrombin [1] = biological target: T1, alpha-thrombin (Homo sapiens, UniProt P00734;P00734 328-363;364-622); assay: ELISA-based binding with competition; 100-fold excess unlabeled competitor as control; 20 mM Tris pH 7.5, 150 mM NaCl, 0.1% BSA, 0.1% Tween 20, 100 ug/mL sheared salmon sperm DNA, 1 h, room temperature; thrombin coated at 250 nM
alpha-thrombin [2] = biological target: T1, alpha-thrombin; assay: competition; 100-fold excess over biotinylated AYA1809007; 20 mM Tris pH 7.5, 150 mM NaCl, 0.1% BSA, 0.1% Tween 20, 100 ug/mL sheared salmon sperm DNA, 1 h, room temperature; thrombin coated at 250 nM
alpha-thrombin [3] = biological target: T1, alpha-thrombin; assay: ELISA; 20 mM Tris pH 7.5, 150 mM NaCl, 0.1% BSA, 0.1% Tween 20, 100 ug/mL sheared salmon sperm DNA, 1 h, room temperature; thrombin coated at 250 nM

| Binder | Kd (alpha-thrombin [1]) | other results |
| --- | --- | --- |
| GCGGTGTTGCTGGGGTTGGGAGGTTGGAGGAAGCAATCGC (structured_DNA) [AYA1809002] | 10 nM | – |
| TCGTCAAGGTACGGTTGGGGGGGTGGGTGTTGACGTTGAA (structured_DNA) [AYA1809004] | 13 nM | – |
| AGGGGCTCTAGGGTGGGTAGGATGGTGAGACCGCAGCGT (structured_DNA) [AYA1809007 unlabeled] | – | binding result (alpha-thrombin [2]): binds |
| AGGGGCTCTAGGGTGGGTAGGATGGTGAGACCGCAGCGT (structured_DNA) [AYA1809007] | – | binding result (alpha-thrombin [3]): binds |
